Results on 4 variants are retold here after IntAct's records for PubMed 27905398.

B1: Zinc finger CCHC domain-containing protein 8 (Homo sapiens), Q6NZY4 (parent)
chain: MAAEVYFGDLELFEPFDHPEESIPKPVHTRFKDDDGDEEDENGVGDAELRERLRQCEETIEQLRAENQELKRKLNILTRPSGILVNDTKLDGPILQILFMNNAISKQYHQEIEEFVSNLVKRFEEQQKNDVEKTSFNLLPQPSSIVLEEDHKVEESCAIKNNKEAFSVVGSVLYFTNFCLDKLGQPLLNENPQLSEGWEIPKYHQVFSHIVSLEGQEIQVKAKRPKPHCFNCGSEEHQMKDCPMPRNAARISEKRKEYMDACGEANNQNFQQRYHAEEVEERFGRFKPGVISEELQDALGVTDKSLPPFIYRMRQLGYPPGWLKEAELENSGLALYDGKDGTDGETEVGEIQQNKSVTYDLSKLVNYPGFNISTPRGIPDEWRIFGSIPMQACQQKDVFANYLTSNFQAPGVKSGNKRSSSHSSPGSPKKQKNESNSAGSPADMELDSDMEVPHGSQSSESFQFQPPLPPDTPPLPRGTPPPVFTPPLPKGTPPLTPSDSPQTRTASGAVDEDALTLEELEEQQRRIWAALEQAESVNSDSDVPVDTPLTGNSVASSPCPNELDLPVPEGKTSEKQTLDEPEVPEIFTKKSEAGHASSPDSEVTSLCQKEKAELAPVNTEGALLDNGSVVPNCDISNGGSQKLFPADTSPSTATKIHSPIPDMSKFATGITPFEFENMAESTGMYLRIRSLLKNSPRNQQKNKKASE
partner: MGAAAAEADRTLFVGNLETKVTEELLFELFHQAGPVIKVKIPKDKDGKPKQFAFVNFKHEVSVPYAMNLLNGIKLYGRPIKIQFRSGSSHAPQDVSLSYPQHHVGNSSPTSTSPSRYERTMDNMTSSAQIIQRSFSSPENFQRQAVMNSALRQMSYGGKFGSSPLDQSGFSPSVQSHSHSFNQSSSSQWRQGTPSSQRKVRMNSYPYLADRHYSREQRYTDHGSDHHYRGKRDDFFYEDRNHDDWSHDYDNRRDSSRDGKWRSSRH
B2: RNA-binding protein 7 (Homo sapiens), Q9Y580 (parent)
chain: B1 partner
partner: B1 chain

The variants in the first test derive from B1. The note with it: with rbm7_human RBM7, Q9Y580.
In the case of L295E;L299E, the “effect of a mutation on the interaction” value is given as “disrupting interaction strength”. With F309A;M313E, the “effect of a mutation on the interaction” value was “disrupting interaction strength”.

Variants of B2 are the subject of another test. The note with it: with zchc8_human ZCCHC8, Q6NZY4.
Take Y65A;L69E: the “effect of a mutation on the interaction” value is “decreasing interaction strength”. In the case of L25E;L29E, the “effect of a mutation on the interaction” value is recorded as “decreasing interaction strength”.
